# Key:
# Experiment in all cases: MST
# Details in all cases: MST: 100 nM AF647 oligo (90 C 2 min, cooled) mixed 1:1 with ligand in PBS, RT, 5 min; EMSA: 1 uM AF546 oligo, UV 254 nm 15 min on ice, 4-16% NativePAGE, 0.5x …
# [1] = molecular target: native HDL (DGUC-HDL, apoA-I-containing lipoprotein particle) (Homo sapiens) (UniProt P02647)
# [2] = molecular target: native HDL (DGUC-HDL, apoA-I-containing lipoprotein particle) (Homo sapiens) (UniProt P02647); remark: listed apart in the source
# [3] = molecular target: native HDL (DGUC-HDL, apoA-I-containing lipoprotein particle) (Homo sapiens) (UniProt P02647); remark: listed apart in the source
# [4] = molecular target: native HDL (DGUC-HDL, apoA-I-containing lipoprotein particle) (Homo sapiens) (UniProt P02647); remark: listed apart in the source
# native HDL (DGUC-HDL, apoA-I-containing lipoprotein particle) (Homo sapiens), sequence (P02647 whole entry): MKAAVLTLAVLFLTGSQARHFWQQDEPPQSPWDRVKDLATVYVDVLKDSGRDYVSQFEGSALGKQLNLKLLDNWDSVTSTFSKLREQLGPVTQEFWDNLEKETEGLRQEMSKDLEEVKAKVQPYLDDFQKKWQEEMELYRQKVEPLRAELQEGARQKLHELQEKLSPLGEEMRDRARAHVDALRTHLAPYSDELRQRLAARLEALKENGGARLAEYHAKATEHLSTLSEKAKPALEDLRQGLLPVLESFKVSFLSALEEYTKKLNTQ
sequence,measurement,setting,value
CCGGCUAGCUCAGUCGGUAGAGCAUGAGAC [tDR-LysCTT-30],Kd,[1],3.8 µM
CUGCCACGCGGGAGGCCCGGGUUCGAUUCC [tDR-GlyGCC-3'-tRH-30],Kd,[2],0.085 µM
GCAUUGGUGGUUCAG [tDR-GlyGCC-5'-tRH-5'tRF-15],Kd,[2],0.115 µM
GCAUUGGUGGUUCAGUGGUAGAAUUCUCGC / GCGAGAAUUCUACCACUGAACCACCAAUGC [dsRNA-tDR-GlyGCC-30],Kd,[3],0.972 µM
GCAUUGGUGGUUCAGUGGUAGAAUUCUCGC [tDR-GlyGCC-30 (5'-tRH-30)],Kd,[3],0.153 µM
same,Kd,[1],0.259 µM
same,Kd,[4],0.054 µM
same,Kd,[2],0.016 µM
GCGCCGCUGGUGUAGUGGUAUCAUGCAAGA [tDR-GlyCCC-30],Kd,[1],34 µM
UGGUAGAAUUCUCGC [tDR-GlyGCC-5'-tRH-3'-tRF-15],Kd,[2],0.124 µM

# From publication PMC9133651, “Elucidation of physico-chemical principles of high-density lipoprotein–small RNA binding interactions”
